Experimental data reported in paper PMC7313415 (Journal of immunology (Baltimore, Md. : 1950), 2020).

Columns and labels:
Experiment in all cases: SPR
[1] = molecular target: Biotin-labeled SUMO-fusion mouse TRIM14 (residues 247-440) (mouse) (UniProt Q8BVW3)
[2] = molecular target: human cGAS (residues 157-522) (human, UniProt Q8N884 157-522)
[3] = molecular target: T1, full-length human TBK1 (human, UniProt Q9UHD2 1-729)
T1 sequence (looked up): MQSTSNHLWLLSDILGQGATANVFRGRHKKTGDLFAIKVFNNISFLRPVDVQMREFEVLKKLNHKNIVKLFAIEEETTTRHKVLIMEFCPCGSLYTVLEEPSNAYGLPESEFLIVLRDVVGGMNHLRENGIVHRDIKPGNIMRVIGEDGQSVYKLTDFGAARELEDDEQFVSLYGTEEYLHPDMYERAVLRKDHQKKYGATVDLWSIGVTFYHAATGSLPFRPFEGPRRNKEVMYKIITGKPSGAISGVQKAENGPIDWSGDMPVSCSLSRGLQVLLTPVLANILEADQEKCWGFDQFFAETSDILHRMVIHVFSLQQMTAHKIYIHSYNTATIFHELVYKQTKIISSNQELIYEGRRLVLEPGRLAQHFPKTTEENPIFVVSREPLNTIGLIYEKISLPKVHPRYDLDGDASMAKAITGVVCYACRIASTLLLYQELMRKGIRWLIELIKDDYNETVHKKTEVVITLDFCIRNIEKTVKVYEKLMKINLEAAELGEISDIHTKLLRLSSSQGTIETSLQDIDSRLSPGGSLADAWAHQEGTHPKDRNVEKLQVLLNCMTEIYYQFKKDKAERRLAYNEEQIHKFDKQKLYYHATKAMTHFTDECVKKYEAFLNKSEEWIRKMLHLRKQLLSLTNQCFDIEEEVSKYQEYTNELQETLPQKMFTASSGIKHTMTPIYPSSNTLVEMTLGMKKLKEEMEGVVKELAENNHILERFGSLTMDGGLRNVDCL

Chain of human cGAS (residues 157-522) (Q8N884 157-522): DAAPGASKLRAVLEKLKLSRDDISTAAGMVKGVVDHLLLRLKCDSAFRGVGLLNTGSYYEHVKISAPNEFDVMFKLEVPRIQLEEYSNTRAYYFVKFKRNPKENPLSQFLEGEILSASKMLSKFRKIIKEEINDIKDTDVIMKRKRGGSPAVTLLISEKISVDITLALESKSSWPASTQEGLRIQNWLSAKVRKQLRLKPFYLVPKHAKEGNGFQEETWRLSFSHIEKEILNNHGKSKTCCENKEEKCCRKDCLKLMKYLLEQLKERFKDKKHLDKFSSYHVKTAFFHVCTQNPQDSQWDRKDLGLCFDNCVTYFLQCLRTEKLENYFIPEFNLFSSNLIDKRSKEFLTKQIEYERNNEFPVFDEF

human TBK1 (residues 1 to 657) (from UniProt Q9UHD2 1-657) (domain or fragment)
Kd [1]: 42.6 µM

mouse TBK1 (residues 1 to 657) (from UniProt Q9WUN2 1-657) (domain or fragment)
Kd [1]: 24.3 µM

B1: Biotin-labeled SUMO-fusion mouse TRIM14 (residues 247-440) (domain or fragment, UniProt Q8BVW3 247-440, looked up)
chain: ALLKTSPSPERALFLKYARTPTLDPDTMHARLRLSPDGLTVRCSLLGRLGPRPAPRFDALRQVLGRDGFAAGRHYWEVDVQEAGVGWWVGAAYPSLRRRGASAAARLGCNRESWCVKRYDLEYWAFHDGQRSRLRPRRDPHRLGVFLDYEAGILAFYDVAGGMSHLHTFHAAFQEPLYPALRLWEGPISIPRLP
modifications: biotin (Avi tag, labelled by BirA)
Kd [2]: 25.8 µM | Kd [3]: 11 µM
